Source: patent US20150361454

Target: Prochlorococcus marinus MED4 aldehyde decarbonylase (MED4_ADC), wild type

B1: Prochlorococcus marinus MED4 acyl-ACP reductase (MED4_AAR), wild type (protein)
chain: MAFGLIGHSTSFEDAKRKASLLGFDHIADGDLDVWCTAPPQLVENVEVKSAIGISIEGSYIDSCFVPEMLSRFKTARRKVLNAMELAQKKGINITALGGFTSIIFENFNLLQHKQIRNTSLEWERFTTGNTHTAWVICRQLEMNAPKIGIDLKSATVAVVGATGDIGSAVCRWLINKTGIGELLLVARQKEPLDSLQKELDGGTIKNLDEALPEADIVVWVASMPKTMEIDANNLKQPCLMIDGGYPKNLDEKFQGNNIHVVKGGIVRFFNDIGWNMMELAEMQNPQREMFACFAEAMILEFEKCHTNFSWGRNNISLEKMEFIGAASVKHGFSAIGLDKHPKVLAV
- products detected on coexpression in E. coli (AAR catalytic activity): when only MED4_AAR is expressed in E. coli no products are detected, and when MED4_AAR and ADC are coexpressed in E. coli the only products detected are alkanes
